Experimental data as given in US20090004644 (Conceptual MindWorks, Inc, published 2009).

Columns and labels:
[1] = target: Botulinum neurotoxin type B heavy chain (UniProt B1INP5 B1INP5:442-1291)
[2] = target: Botulinum neurotoxin type A light chain (UniProt P0DPI1 P0DPI1:2-448)
[3] = target: Botulinum neurotoxin type A heavy chain (UniProt P0DPI1 P0DPI1:449-1296)
[4] = target: Botulinum neurotoxin type B light chain (UniProt B1INP5 B1INP5:2-441)
Botulinum neurotoxin type B light chain, sequence (B1INP5 2-441, one chain of several): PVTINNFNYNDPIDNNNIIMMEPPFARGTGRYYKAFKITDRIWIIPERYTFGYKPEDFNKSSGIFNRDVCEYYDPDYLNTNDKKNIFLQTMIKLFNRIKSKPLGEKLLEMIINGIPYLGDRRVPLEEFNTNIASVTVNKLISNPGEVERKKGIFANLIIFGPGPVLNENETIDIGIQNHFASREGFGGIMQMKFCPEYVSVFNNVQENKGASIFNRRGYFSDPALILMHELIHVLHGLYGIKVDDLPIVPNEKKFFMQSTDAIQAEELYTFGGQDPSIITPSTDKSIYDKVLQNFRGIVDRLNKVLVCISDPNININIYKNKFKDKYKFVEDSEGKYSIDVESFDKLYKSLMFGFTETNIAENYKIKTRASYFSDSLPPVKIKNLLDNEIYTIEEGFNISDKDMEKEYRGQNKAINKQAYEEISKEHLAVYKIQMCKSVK

Botulinum neurotoxin type B heavy chain, sequence (B1INP5 442-1291, one chain of several): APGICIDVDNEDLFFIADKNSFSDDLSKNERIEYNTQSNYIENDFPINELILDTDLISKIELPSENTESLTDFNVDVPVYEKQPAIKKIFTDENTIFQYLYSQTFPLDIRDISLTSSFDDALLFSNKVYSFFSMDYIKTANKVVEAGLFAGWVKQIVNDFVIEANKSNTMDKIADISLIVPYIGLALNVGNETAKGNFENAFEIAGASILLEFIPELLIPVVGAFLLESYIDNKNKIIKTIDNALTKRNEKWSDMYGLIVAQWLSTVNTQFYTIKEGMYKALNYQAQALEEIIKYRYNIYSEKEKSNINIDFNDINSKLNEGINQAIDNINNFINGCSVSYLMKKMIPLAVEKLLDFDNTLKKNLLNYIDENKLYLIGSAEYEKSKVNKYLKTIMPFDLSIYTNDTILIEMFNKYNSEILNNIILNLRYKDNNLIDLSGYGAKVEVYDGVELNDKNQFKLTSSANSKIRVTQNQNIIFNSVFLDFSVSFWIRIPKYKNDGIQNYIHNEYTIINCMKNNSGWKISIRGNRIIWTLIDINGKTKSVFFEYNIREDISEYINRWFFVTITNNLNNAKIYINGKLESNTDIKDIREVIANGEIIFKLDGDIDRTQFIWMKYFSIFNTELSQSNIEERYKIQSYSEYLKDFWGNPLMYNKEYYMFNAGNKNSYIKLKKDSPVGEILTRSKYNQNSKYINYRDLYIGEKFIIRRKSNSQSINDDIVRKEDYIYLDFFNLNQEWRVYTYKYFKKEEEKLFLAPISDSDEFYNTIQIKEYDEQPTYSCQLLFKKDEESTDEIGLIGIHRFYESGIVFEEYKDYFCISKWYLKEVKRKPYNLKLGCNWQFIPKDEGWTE
Botulinum neurotoxin type A heavy chain, sequence (P0DPI1 449-1296, one chain of several): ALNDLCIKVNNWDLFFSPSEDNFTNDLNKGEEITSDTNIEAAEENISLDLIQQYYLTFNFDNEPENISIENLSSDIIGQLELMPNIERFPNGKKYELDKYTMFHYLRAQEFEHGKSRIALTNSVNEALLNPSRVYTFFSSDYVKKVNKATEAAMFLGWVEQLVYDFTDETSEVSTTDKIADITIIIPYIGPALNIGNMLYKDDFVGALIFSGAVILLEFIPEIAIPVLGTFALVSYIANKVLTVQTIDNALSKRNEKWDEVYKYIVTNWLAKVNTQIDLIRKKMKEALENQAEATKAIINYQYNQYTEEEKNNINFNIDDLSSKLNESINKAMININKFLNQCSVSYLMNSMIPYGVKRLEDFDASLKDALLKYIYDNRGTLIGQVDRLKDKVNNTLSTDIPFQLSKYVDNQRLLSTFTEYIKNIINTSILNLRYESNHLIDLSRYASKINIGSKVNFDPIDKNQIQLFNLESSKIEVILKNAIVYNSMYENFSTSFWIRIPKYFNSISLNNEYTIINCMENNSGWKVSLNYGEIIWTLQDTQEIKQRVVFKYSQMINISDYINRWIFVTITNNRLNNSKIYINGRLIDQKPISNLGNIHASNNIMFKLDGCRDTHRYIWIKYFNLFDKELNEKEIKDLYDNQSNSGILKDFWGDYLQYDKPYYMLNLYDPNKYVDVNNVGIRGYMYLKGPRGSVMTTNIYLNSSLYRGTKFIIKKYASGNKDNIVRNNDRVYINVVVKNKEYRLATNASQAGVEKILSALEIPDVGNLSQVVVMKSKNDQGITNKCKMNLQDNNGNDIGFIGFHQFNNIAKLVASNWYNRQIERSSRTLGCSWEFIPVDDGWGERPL
Botulinum neurotoxin type A light chain, sequence (P0DPI1 2-448, one chain of several): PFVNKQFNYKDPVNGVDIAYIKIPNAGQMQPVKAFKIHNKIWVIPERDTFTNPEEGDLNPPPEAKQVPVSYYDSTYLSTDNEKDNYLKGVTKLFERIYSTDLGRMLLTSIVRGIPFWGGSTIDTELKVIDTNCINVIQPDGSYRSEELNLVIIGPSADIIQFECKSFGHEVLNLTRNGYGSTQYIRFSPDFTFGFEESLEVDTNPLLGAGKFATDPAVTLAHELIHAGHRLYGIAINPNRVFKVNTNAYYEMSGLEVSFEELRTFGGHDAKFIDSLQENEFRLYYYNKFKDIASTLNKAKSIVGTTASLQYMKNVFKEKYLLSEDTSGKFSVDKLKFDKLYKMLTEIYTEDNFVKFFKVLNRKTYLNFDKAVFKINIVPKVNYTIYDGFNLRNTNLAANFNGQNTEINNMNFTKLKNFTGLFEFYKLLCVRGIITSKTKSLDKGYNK

B1: LCA 1(+) (DCE-1) (ssDNA)
DNA: AGTCTAGAGGGCCCCAGAATACACCCGACAACTAGATACCCATCAAAAGTCCAGCAAAGGATGCAGGGGT
binding result [1]: no binding | binding result [2]: binds | binding result [3]: no binding

B2: 3(+) SELEX LCA aptamer (DCE-3) (ssDNA)
DNA: CATCCGTCACACCTGCTCTGGGGATGTGTGGTGTTGGCTCCCGTATCAAGGGCGAATTCT
binding result [1]: binds | binding result [2]: binds | binding result [3]: binds | binding result [4]: binds

B3: 4(+) SELEX holotoxin aptamer (DCE-4) (ssDNA)
DNA: CATCCGTCACACCTGCTCTGCTATCACATGCCTGCTGAAGTGGTGTTGGCTCCCGTATCA
binding result [1]: binds | binding result [3]: binds

B4: LCB 2(+) (DCE-2) (ssDNA)
DNA: AGTCTAGAGGGCCCCAGAATTATCCACTAGCGGGAAGTAGTACATCTCACCCAGCAAAGGATGCAGGGGT
binding result [4]: binds
